From the supplement of paper PMC10724198
± gives the standard deviation of the averaged measurements.

Tested on: Saccharomyces cerevisiae
Assay: protein stability index of tFT-peptide fusion (C-terminal peptide) (PSI (0-1 scale)); higher = more stable (slower turnover)
Settings: genetic background: wild type; temperature: 30 C
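Also: PSI is a weighted mean of sequencing reads over stability bins, variants kept only with over 10 reads, mCherry proximal and sfGFP distal, peptide attached via GGGS linker.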

WTGTTGQSLYLS gave a protein stability index of 0.733 ± 0.1.

In the case of FFPPPSSFCLSL, the protein stability index is reported as 0.772 ± 0.069.

Sequence LPPSSFPTPSPP has a protein stability index of 0.723 ± 0.08.

PRAYPSNLPPSP showed a protein stability index of 0.721 ± 0.037.

SALLLPRARPPD showed a protein stability index of 0.634 ± 0.055.

DALWLAFFDVID showed a protein stability index of 0.711 ± 0.068.

In the case of SGYCCDGCKGSY, the protein stability index is reported as 0.6461 ± 0.0028.

VGGGWGGGVVLV showed a protein stability index of 0.696 ± 0.0071.

WPVALAPTRLEI showed a protein stability index of 0.608 ± 0.072.

Work on GSGELYMGRLVE yielded a protein stability index of 0.676 ± 0.047.

Sequence SFLFWFFASGWL has a protein stability index of 0.56 ± 0.047.

VCRGAIPIERFR showed a protein stability index of 0.715 ± 0.15.

Sequence KKGVSNKVSGFT has a protein stability index of 0.719 ± 0.014.

In the case of KKQKKQKKKSHK, the protein stability index is reported as 0.715 ± 0.047.

GSRTHSMEDTTG showed a protein stability index of 0.646 ± 0.0098.

For ASGPLPPHPIAD, the protein stability index was 0.677 ± 0.011.

For RLLASIRAAQAS, the protein stability index was 0.525 ± 0.1.

Sequence WENMDKCSKGLI has a protein stability index of 0.6767 ± 0.0033.

GWGGAGGGGGRV gave a protein stability index of 0.652 ± 0.1.

RERTNKKLAKDK gave a protein stability index of 0.656 ± 0.045.

TGSKKKKVEIEM showed a protein stability index of 0.679 ± 0.048.

With PPPPSRPPSPGP the protein stability index was 0.6691 ± 0.00067.

GVGWQSPGVLVL gave a protein stability index of 0.605 ± 0.017.

With RVVDAPPSGCRS the protein stability index was 0.688 ± 0.037.

PRLPLPPPPLPL gave a protein stability index of 0.683 ± 0.026.

For VLCRSLAGCCFV, the protein stability index was 0.709 ± 0.012.

With SRHGRTTKDFLQ the protein stability index was 0.682 ± 0.014.

Sequence LFPSVCSTSSFS has a protein stability index of 0.676 ± 0.034.

VTIDETMSKGIN gave a protein stability index of 0.698 ± 0.045.

For RWGANSVSLEGE, the protein stability index was 0.737 ± 0.02.

For PPPPPLPLPLPS, the protein stability index was 0.728 ± 0.066.

Sequence GVAGWGTVVGAQ has a protein stability index of 0.712 ± 0.07.

PYRFRDRTYEEL was tested, and the protein stability index was 0.673 ± 0.022.

In the case of PLLPSPPLLLPS, the protein stability index is reported as 0.819 ± 0.12.

In the case of KYHIKKPSTLEI, the protein stability index is reported as 0.683 ± 0.01.

With AYKCLPAKGADS the protein stability index was 0.695 ± 0.047.

RGGRMGFYLVCI showed a protein stability index of 0.636 ± 0.028.

In the case of SKKKKNLQIPKK, the protein stability index is reported as 0.734 ± 0.12.

Work on EPKLPPCPTPPS yielded a protein stability index of 0.721 ± 0.012.

RNKEPRSSRQNS was tested, and the protein stability index was 0.578 ± 0.009.

For PKNNHTKKKTGQ, the protein stability index was 0.677 ± 0.0093.

LTHSTLCYASDL gave a protein stability index of 0.677 ± 0.018.

VTGPLSSDSSFT was tested, and the protein stability index was 0.672 ± 0.017.

LLNNTLENQNTL gave a protein stability index of 0.6645 ± 0.0041.

In the case of LKNFGRGAMVRT, the protein stability index is reported as 0.688 ± 0.013.

With ASKKSVVFKQKT the protein stability index was 0.6586 ± 0.0013.

PPSPPPARPSPA was tested, and the protein stability index was 0.667 ± 0.041.

PVFLEFESWCVC was tested, and the protein stability index was 0.685 ± 0.044.

TRQRSDRPRAPR showed a protein stability index of 0.6523 ± 0.00075.

Sequence PPLFRPPASAPR has a protein stability index of 0.715 ± 0.018.

EKERKIKEREVT gave a protein stability index of 0.631 ± 0.018.

With RTPPLPLLPPHP the protein stability index was 0.788 ± 0.052.

Sequence PRPLTPPAPPHP has a protein stability index of 0.748 ± 0.041.

For LPHSPHRAAYPN, the protein stability index was 0.8 ± 0.013.

In the case of PLPTPTPPPPAP, the protein stability index is reported as 0.734 ± 0.028.

TQPDLAPPLPRS gave a protein stability index of 0.65 ± 0.017.

ITRVGSLENSQV showed a protein stability index of 0.635 ± 0.013.

In the case of ASVTSKSNCSGI, the protein stability index is reported as 0.663 ± 0.037.

In the case of GGVFCGGGALWA, the protein stability index is reported as 0.614 ± 0.014.

Work on FNSFPPSPSLRP yielded a protein stability index of 0.729 ± 0.012.

With GALPPPPARGDL the protein stability index was 0.768 ± 0.024.

Work on CRWRLGRLARCA yielded a protein stability index of 0.515 ± 0.0084.

Sequence RSGENTVKPVRQ has a protein stability index of 0.658 ± 0.029.

HRDPRFSRCSTC showed a protein stability index of 0.69 ± 0.034.

HGFHSPPSDLPT was tested, and the protein stability index was 0.724 ± 0.15.

Work on LCGVWWGWWVGL yielded a protein stability index of 0.576 ± 0.026.

Sequence PRYAEFVGRFEV has a protein stability index of 0.6508 ± 0.0064.

Sequence QLRPPHRTLHLP has a protein stability index of 0.698 ± 0.028.

EKNTNVDHNRNF gave a protein stability index of 0.7384 ± 0.0061.

SLVSTSRALFAQ showed a protein stability index of 0.659 ± 0.019.

PDRLPPPLLPPL showed a protein stability index of 0.718 ± 0.028.

Sequence YSRPAPSAPPHL has a protein stability index of 0.698 ± 0.016.

Sequence FPPHPPPPPPLN has a protein stability index of 0.743 ± 0.041.

Sequence LRRNHREPGYSK has a protein stability index of 0.684 ± 0.024.

With HWVVRGGSRRVV the protein stability index was 0.7056 ± 0.0045.

With FALRDLHLSCFA the protein stability index was 0.577 ± 0.012.

With PRPLPLPPLALP the protein stability index was 0.696 ± 0.027.

Work on RESVSPCLVGAV yielded a protein stability index of 0.616 ± 0.056.

Work on SIRGLRTLKFLG yielded a protein stability index of 0.6739 ± 0.0049.

Sequence PTLIPPPPPPGP has a protein stability index of 0.718 ± 0.059.

Sequence WVPISPFLTPSH has a protein stability index of 0.716 ± 0.025.

DLSSFGRLGCQG gave a protein stability index of 0.871 ± 0.037.

SASVACFCGLVV gave a protein stability index of 0.7 ± 0.023.

Work on FLCSLAPHRPLL yielded a protein stability index of 0.704 ± 0.033.

RSGSGGVAGRRE gave a protein stability index of 0.692 ± 0.022.

In the case of RFLLSITSSLVL, the protein stability index is reported as 0.666 ± 0.043.

Sequence DTTSSPPLPLLV has a protein stability index of 0.623 ± 0.035.

For EEWRRRSTKERR, the protein stability index was 0.641 ± 0.013.

With GRDKLNEDRDKV the protein stability index was 0.647 ± 0.0095.

ELNSGLLRSKET gave a protein stability index of 0.661 ± 0.0095.

With SLEFISIAFLDL the protein stability index was 0.685 ± 0.042.

With GNSGAFTPSTQW the protein stability index was 0.687 ± 0.055.

GGGGAGGGGGGG gave a protein stability index of 0.6739 ± 0.0021.

Sequence TRMRWCGSGVKN has a protein stability index of 0.809 ± 0.067.

VCGRWVYPGGCR gave a protein stability index of 0.61 ± 0.01.

Work on SPLLPPPPSPPL yielded a protein stability index of 0.633 ± 0.081.

Sequence RKQHKLRKTKRA has a protein stability index of 0.657 ± 0.061.

PLSPPPPSHIPP was tested, and the protein stability index was 0.653 ± 0.023.

Sequence VRRGHEGCGLRY has a protein stability index of 0.717 ± 0.025.

In the case of TNKKEPTMTRKK, the protein stability index is reported as 0.72528 ± 0.00042.

EKKKKRNKVNQN gave a protein stability index of 0.709 ± 0.064.
